From patent US20200199233A1
Several values for one entry are separate records, joined by “and”; a condition that tells them apart may be missing. Identical values can stand only once.

What was measured:
[1] = target: human MUC16 on cells (OVCAR-3, PEO1, 3T3/hβ2M/HLA-A2/NYESO1p/hMUC16) (human); assay: cell-based or functional assay
[2] = target: human MUC16 on cells (OVCAR-3, PEO1, 3T3/hβ2M/HLA-A2/NYESO1p/hMUC16) (human); assay: flow cytometry ('FACS binding', MFI_PE) on cells. The sheet names no cell line; the legend of FIGS. 2A-2I names PEO1 (endogenous MUC16). The unit is taken from the axis, Log10 (M).
hMUC16.mmh (human) = assay: SPR (Biacore), 37 C, antibody captured by anti-human Fc, hMUC16.mmh injected
Sequence of hMUC16.mmh (human) (chain, as listed by the source limits assumed): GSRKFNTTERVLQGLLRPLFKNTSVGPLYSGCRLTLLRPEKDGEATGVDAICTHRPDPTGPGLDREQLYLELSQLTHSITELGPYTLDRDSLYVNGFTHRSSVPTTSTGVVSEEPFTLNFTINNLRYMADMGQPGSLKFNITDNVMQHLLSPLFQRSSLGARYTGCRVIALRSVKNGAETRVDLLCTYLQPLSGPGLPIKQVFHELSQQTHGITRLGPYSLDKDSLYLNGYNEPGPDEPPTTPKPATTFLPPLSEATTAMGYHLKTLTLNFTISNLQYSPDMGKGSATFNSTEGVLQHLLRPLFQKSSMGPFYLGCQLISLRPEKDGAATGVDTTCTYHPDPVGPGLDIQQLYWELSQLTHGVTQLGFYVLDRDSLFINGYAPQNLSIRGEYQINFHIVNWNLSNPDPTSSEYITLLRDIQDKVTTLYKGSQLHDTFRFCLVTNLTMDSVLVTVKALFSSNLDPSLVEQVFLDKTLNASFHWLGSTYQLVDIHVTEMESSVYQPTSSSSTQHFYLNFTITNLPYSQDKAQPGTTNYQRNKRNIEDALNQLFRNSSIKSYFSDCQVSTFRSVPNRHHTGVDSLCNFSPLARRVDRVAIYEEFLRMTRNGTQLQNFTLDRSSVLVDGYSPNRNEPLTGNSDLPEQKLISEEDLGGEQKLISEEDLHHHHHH

mCD28.mmh (mouse) = assay: SPR (Biacore), 37 C, antibody captured by anti-human Fc, mCD28.mmh injected
Sequence of mCD28.mmh (mouse) (chain, as listed by the source limits assumed): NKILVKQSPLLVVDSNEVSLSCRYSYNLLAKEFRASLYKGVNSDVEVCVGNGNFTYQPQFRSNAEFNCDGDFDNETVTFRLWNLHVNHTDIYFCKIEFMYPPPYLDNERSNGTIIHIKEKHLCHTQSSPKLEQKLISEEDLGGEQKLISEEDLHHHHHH

[3] = target: human MUC16 on cells (OVCAR-3, PEO1, 3T3/hβ2M/HLA-A2/NYESO1p/hMUC16) (human); assay: flow cytometry ('FACS binding', MFI_PE) on cells, the same assay as the other two curves. The control's curve is flat at baseline, so this is a fit value without a response. The unit is taken from the axis, Log10 (M).

REGN4018 (bispecific antibody)
PEO1 Kill EC50 [M], human PBMCs, MUC16xCD3 as single agent [1]: 1.27e-10 M
PEO1 Kill EC50 [M], human PBMCs, MUC16xCD3 titrated in the presence of bs24963D [1]: 1.07e-10 M and 5.31e-11 M
PEO1 min. % viability, human PBMCs, MUC16xCD3 as single agent [1]: 57%
PEO1 min. % viability, human PBMCs, MUC16xCD3 titrated in the presence of bs24963D [1]: 9.8%
PEO1 min. % viability, human PBMCs, MUC16xCD3 titrated in the presence of bs32897D [1]: 17.7%
EC50 [2]: 1.84 nM

REGN4615 (bispecific antibody)
90 nM hMUC16.mmh Bind (RU) (hMUC16.mmh (human)): 513 RU
Kd (hMUC16.mmh (human)): 0.749 nM
T½ (hMUC16.mmh (human)): 0.408 h
koff (hMUC16.mmh (human)): 0.000472 s⁻¹
kon (hMUC16.mmh (human)): 629000 M⁻¹ s⁻¹
Kd (mCD28.mmh (mouse)): 3.76 nM
T½ (mCD28.mmh (mouse)): 2.48 h
koff (mCD28.mmh (mouse)): 7.77e-05 s⁻¹
kon (mCD28.mmh (mouse)): 20700 M⁻¹ s⁻¹

CD3-BINDING CONTROL (bispecific antibody)
EC50 [3]: 2.27 nM
